According to paper PMC4520715:

How the values were obtained:
Assay in all cases: co-IP
[1] = molecular target: myc-UBQLN1 (human) (human) (UniProt Q9UMX0)
[2] = molecular target: Rv1566-V5 (Mycobacterium tuberculosis)
[3] = molecular target: Rv1926c-V5 (Mycobacterium tuberculosis) (UniProt P9WIP1)
Sequence of UniProt P9WIP1 (P9WIP1 30-159): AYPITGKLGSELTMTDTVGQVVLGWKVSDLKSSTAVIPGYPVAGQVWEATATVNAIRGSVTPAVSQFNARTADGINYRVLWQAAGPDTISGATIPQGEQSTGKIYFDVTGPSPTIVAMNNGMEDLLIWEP

Substance | percent of the amount directly precipitated [1] [%] | percent of the amount directly precipitated [2] [%] | percent of the amount precipitated directly with the myc antibody [3] [%]
Rv1566-V5 (natural protein) | 7 |  | 
myc-UBQLN1 (human) (from UniProt Q9UMX0 1-589) (natural protein) |  | 7 | 27
